Measurements taken from patent CN114751980A (XIAMEN BOANG BIOTECHNOLOGY CO LTD, dated 2022).

Target: T1, 重组N蛋白 (新冠病毒 (SARS-CoV-2), UniProt P0DTC9 1-419)
T1 construct: also called 新冠病毒N蛋白
Experiment: indirect ELISA

B1: 单抗阻断剂A3-4 (antibody, V domains shown)
VH: EVQLEESGGGLVQPGGSRKLSCIASGIIFHNFGMHWIRQAPEKGLEWVAYISGLSRNISYADTVKGRFTISRDNPKNTLFLQMTSLRSEDTAMYYCSRGWAYDAAFWGQGTLVTVS
VL: DVVMTQTPLTLSVTIGQPASFSCKSSRSLLSSNGKIYLNWLLQRPGQSPKRLIYLVSKLDSGVPDRFTGSGSGTDFTLQINRVEAEDLGVYYCVQGTHFPLTFGAGTKLELKR
notes: also called 新冠病毒检测用单抗阻断剂
- binding result: no binding
